Measurements taken from IntAct's records for PubMed 35512704.

B1: Speckle-type POZ protein (Homo sapiens), O43791 (parent)
chain: MSRVPSPPPPAEMSSGPVAESWCYTQIKVVKFSYMWTINNFSFCREEMGEVIKSSTFSSGANDKLKWCLRVNPKGLDEESKDYLSLYLLLVSCPKSEVRAKFKFSILNAKGEETKAMESQRAYRFVQGKDWGFKKFIRRDFLLDEANGLLPDDKLTLFCEVSVVQDSVNISGQNTMNMVKVPECRLADELGGLWENSRFTDCCLCVAGQEFQAHKAILAARSPVFSAMFEHEMEESKKNRVEINDVEPEVFKEMMCFIYTGKAPNLDKMADDLLAAADKYALERLKVMCEDALCSNLSVENAAEILILADLHSADQLKTQAVDFINYHASDVLETSGWKSMVVSHPHLVAEAYRSLASAQCPFLGPPRKRLKQS
partner: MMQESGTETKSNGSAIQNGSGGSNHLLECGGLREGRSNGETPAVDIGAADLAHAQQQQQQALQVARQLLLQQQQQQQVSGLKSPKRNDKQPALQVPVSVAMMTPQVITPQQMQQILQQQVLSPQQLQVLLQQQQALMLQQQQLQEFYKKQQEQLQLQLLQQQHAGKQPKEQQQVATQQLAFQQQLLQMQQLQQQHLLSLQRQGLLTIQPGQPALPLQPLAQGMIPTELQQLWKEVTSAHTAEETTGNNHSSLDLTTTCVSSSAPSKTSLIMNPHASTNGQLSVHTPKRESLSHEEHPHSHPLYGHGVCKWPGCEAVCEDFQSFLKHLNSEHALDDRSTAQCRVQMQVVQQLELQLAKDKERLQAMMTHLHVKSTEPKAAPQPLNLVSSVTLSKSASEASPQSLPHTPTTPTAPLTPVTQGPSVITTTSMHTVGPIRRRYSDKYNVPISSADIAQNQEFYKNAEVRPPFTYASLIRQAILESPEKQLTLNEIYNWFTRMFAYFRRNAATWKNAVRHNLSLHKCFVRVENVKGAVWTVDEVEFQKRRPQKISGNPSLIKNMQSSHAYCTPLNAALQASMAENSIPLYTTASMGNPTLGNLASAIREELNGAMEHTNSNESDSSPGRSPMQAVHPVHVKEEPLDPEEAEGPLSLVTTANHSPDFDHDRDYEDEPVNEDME
B2: Speckle-type POZ protein (Homo sapiens), O43791 (parent)
chain: B1 chain
partner: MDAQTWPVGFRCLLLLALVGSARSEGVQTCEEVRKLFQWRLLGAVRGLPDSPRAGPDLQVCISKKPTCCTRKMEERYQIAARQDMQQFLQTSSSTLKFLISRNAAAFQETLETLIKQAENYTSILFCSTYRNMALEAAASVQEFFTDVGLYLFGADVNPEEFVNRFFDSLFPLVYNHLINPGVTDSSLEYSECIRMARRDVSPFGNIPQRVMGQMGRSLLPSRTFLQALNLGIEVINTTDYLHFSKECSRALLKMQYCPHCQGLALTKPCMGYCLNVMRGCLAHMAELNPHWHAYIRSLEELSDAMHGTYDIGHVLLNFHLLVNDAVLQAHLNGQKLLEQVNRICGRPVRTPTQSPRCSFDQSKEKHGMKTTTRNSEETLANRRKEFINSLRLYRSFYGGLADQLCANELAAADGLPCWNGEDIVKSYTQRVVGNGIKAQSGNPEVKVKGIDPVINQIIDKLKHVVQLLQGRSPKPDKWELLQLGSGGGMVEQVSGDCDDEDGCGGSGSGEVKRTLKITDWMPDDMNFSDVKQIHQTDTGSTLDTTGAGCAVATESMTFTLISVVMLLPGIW
B3: Speckle-type POZ protein (Homo sapiens), O43791 (parent)
chain: B1 chain
partner: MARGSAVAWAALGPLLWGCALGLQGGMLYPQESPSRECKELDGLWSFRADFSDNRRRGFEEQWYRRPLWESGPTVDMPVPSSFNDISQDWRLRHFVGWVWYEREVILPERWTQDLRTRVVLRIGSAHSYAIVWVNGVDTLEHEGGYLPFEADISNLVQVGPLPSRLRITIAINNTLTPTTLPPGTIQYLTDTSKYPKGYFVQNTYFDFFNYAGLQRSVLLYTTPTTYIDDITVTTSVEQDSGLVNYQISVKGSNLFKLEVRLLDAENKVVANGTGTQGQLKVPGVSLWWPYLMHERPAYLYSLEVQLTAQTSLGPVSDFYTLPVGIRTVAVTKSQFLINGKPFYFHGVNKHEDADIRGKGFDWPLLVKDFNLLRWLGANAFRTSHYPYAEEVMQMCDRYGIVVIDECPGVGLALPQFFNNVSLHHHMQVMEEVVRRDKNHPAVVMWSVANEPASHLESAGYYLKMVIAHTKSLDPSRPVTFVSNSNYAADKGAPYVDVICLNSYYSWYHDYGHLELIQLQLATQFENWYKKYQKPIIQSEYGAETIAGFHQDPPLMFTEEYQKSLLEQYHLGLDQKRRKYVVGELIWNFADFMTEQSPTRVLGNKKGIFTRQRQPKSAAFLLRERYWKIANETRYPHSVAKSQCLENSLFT
B4: Speckle-type POZ protein (Homo sapiens), O43791 (parent)
chain: B1 chain
partner: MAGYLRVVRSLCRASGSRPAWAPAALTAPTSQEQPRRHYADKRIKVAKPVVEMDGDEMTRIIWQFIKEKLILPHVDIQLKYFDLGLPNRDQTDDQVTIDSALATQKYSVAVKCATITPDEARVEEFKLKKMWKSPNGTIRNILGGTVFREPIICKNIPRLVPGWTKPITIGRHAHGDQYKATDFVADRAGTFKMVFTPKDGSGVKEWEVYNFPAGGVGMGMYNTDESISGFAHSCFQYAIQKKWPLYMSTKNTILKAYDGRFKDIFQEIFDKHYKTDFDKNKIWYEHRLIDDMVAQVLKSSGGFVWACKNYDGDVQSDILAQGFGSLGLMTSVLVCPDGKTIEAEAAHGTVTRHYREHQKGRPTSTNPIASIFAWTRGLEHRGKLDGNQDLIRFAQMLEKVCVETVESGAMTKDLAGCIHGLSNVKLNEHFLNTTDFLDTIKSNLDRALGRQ
B5: Speckle-type POZ protein (Homo sapiens), O43791 (parent)
chain: B1 chain
partner: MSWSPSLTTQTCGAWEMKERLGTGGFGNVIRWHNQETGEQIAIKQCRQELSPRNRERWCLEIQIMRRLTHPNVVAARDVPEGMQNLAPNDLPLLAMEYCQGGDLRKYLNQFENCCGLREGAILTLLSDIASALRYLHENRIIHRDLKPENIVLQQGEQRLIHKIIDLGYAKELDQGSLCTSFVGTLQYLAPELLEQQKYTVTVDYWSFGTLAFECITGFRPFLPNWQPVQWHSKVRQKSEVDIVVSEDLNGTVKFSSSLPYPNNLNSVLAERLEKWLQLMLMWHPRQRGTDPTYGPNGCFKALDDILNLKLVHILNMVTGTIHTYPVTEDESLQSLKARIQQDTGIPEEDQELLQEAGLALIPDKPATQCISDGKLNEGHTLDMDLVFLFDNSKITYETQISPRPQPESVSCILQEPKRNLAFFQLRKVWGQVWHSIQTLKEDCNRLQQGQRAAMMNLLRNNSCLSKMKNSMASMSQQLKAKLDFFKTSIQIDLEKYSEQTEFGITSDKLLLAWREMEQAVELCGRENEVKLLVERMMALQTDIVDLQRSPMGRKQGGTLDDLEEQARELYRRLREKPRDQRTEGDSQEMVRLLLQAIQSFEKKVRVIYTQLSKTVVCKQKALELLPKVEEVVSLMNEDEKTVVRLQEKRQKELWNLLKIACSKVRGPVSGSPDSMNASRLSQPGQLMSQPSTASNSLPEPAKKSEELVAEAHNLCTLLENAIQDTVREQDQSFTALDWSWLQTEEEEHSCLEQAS
B6: Speckle-type POZ protein (Homo sapiens), O43791 (parent)
chain: B1 chain
partner: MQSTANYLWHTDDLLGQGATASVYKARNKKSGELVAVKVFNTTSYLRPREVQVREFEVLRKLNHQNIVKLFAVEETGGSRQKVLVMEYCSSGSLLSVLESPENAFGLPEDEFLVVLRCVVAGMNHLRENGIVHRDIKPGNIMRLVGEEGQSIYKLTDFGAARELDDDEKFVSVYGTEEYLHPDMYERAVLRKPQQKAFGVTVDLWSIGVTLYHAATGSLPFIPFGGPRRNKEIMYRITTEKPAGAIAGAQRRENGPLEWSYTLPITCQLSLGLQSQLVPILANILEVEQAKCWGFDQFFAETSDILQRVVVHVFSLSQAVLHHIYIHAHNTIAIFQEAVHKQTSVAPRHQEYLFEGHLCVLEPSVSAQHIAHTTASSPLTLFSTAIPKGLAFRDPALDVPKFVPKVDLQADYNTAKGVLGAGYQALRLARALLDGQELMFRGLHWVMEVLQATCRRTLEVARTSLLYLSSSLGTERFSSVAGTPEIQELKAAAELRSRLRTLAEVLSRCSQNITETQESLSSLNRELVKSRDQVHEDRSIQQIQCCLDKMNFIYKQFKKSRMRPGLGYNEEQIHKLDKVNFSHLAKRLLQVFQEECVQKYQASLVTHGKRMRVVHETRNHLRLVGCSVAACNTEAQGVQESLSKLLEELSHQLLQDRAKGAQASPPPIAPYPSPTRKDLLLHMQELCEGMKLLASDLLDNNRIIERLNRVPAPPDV
B7: Speckle-type POZ protein (Homo sapiens), O43791 (parent)
chain: B1 chain
partner: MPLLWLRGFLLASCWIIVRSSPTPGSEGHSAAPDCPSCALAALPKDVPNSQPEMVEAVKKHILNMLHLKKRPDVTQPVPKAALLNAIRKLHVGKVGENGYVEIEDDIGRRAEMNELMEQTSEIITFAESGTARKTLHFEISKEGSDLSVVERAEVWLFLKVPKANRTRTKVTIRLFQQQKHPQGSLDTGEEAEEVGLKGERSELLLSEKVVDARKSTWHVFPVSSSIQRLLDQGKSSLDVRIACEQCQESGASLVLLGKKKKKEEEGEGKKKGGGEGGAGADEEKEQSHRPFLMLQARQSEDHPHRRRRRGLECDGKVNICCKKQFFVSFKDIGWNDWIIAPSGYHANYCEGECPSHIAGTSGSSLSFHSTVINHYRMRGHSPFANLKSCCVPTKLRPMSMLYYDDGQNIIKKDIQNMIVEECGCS

Variants of: B1
Conditions: with foxp1_human FOXP1, Q9H334

Row | Variant | effect of a mutation on the interaction
1 | Y87C | with no effect

Variants of: B1
Conditions: with foxp1_human FOXP1, Q9H334
Remark: another data set of the same source

Row | Variant | effect of a mutation on the interaction
2 | F133V | causing an interaction

Variants of: B2
Conditions: with gpc5_human GPC5, P78333

Row | Variant | effect of a mutation on the interaction
3 | F102C | with no effect

Variants of: B2
Conditions: with gpc5_human GPC5, P78333
Remark: another data set of the same source

Row | Variant | effect of a mutation on the interaction
4 | F133L | with no effect

Variants of: B2
Conditions: with gpc5_human GPC5, P78333
Remark: another data set of the same source

Row | Variant | effect of a mutation on the interaction
5 | Y87C | with no effect

Variants of: B2
Conditions: with gpc5_human GPC5, P78333
Remark: another data set of the same source

Row | Variant | effect of a mutation on the interaction
6 | F133V | with no effect

Variants of: B3
Conditions: with bglr_human GUSB

Row | Variant | effect of a mutation on the interaction
7 | F102C | with no effect

Variants of: B3
Conditions: with bglr_human GUSB
Remark: another data set of the same source

Row | Variant | effect of a mutation on the interaction
8 | F133L | with no effect

Variants of: B3
Conditions: with bglr_human GUSB
Remark: another data set of the same source

Row | Variant | effect of a mutation on the interaction
9 | Y87C | with no effect

Variants of: B3
Conditions: with bglr_human GUSB
Remark: another data set of the same source

Row | Variant | effect of a mutation on the interaction
10 | F133V | with no effect

Variants of: B4
Conditions: with idhp_human IDH2, P48735

Row | Variant | effect of a mutation on the interaction
11 | F102C | with no effect

Variants of: B4
Conditions: with idhp_human IDH2, P48735
Remark: another data set of the same source

Row | Variant | effect of a mutation on the interaction
12 | F133L | with no effect

Variants of: B4
Conditions: with idhp_human IDH2, P48735
Remark: another data set of the same source

Row | Variant | effect of a mutation on the interaction
13 | Y87C | with no effect

Variants of: B4
Conditions: with idhp_human IDH2, P48735
Remark: another data set of the same source

Row | Variant | effect of a mutation on the interaction
14 | F133V | with no effect

Variants of: B5
Conditions: with ikkb_human IKBKB

Row | Variant | effect of a mutation on the interaction
15 | F102C | with no effect

Variants of: B5
Conditions: with ikkb_human IKBKB
Remark: another data set of the same source

Row | Variant | effect of a mutation on the interaction
16 | F133L | with no effect

Variants of: B5
Conditions: with ikkb_human IKBKB
Remark: another data set of the same source

Row | Variant | effect of a mutation on the interaction
17 | Y87C | with no effect

Variants of: B5
Conditions: with ikkb_human IKBKB
Remark: another data set of the same source

Row | Variant | effect of a mutation on the interaction
18 | F133V | with no effect

Variants of: B6
Conditions: with ikke_human IKBKE

Row | Variant | effect of a mutation on the interaction
19 | F102C | with no effect

Variants of: B6
Conditions: with ikke_human IKBKE
Remark: another data set of the same source

Row | Variant | effect of a mutation on the interaction
20 | F133L | with no effect

Variants of: B6
Conditions: with ikke_human IKBKE
Remark: another data set of the same source

Row | Variant | effect of a mutation on the interaction
21 | Y87C | with no effect

Variants of: B6
Conditions: with ikke_human IKBKE
Remark: another data set of the same source

Row | Variant | effect of a mutation on the interaction
22 | F133V | with no effect

Variants of: B7
Conditions: with inhba_human INHBA

Row | Variant | effect of a mutation on the interaction
23 | F102C | with no effect

Variants of: B7
Conditions: with inhba_human INHBA
Remark: another data set of the same source

Row | Variant | effect of a mutation on the interaction
24 | F133L | with no effect
